Measured values taken from patent publication US20220324969A1 (MYTHIC THERAPEUTICS, published 2022).
Residue numbers refer to the chain shown, from its start. Names may count otherwise.

B1: MYT0489 (antibody, V domains shown)
VH: EVQLVQSGAEVKKPGSSVKVSCKASGYTITDSHIHWVRQAPGQSLEWIGYIYPYNGGTDYNQKFKNRATLTVDNPTNTAYMELSSLRSEDTDFYYCVNGNPWLAYWGQGTLVTVSS
VL: DIQLTQSPSTLSASVGDRVTITCRASESLDNYGIRFLTWFQQKPGKAPKLLMYAASNQGSGVPSRFSGSGSGTEFTLTISSLQPDDFATYYCQQTKEVPWSFGQGTKVEVK
notes: IgG; gemtuzumab VH variant #8 (N33H)
B2: MYT0510 (antibody, V domains shown)
VH: B1 VH with H33N, N98H
VL: B1 VL
notes: IgG; gemtuzumab VH variant #29 (N98H)
B3: MYT0503 (antibody, V domains shown)
VH: B1 VH with H33N, N61H
VL: B1 VL
notes: IgG; gemtuzumab VH variant #22 (N61H)
B4: MYT0500 (antibody, V domains shown)
VH: B1 VH with H33N, T58H
VL: B1 VL
notes: IgG; gemtuzumab VH variant #19 (T58H)
B5: MYT0497 (antibody, V domains shown)
VH: B1 VH with H33N, N55H
VL: B1 VL
notes: IgG; gemtuzumab VH variant #16 (N55H)
B6: MYT0506 (antibody, V domains shown)
VH: B1 VH with H33N, F64H
VL: B1 VL
notes: IgG; gemtuzumab VH variant #25 (F64H)
B7: MYT0492 (antibody, V domains shown)
VH: B1 VH with H33N, Y50H
VL: B1 VL
notes: IgG; gemtuzumab VH variant #11 (Y50H)
B8: MYT0496 (antibody, V domains shown)
VH: B1 VH with H33N, Y54H
VL: B1 VL
notes: IgG; gemtuzumab VH variant #15 (Y54H)
B9: MYT0516 (antibody, V domains shown)
VH: B1 VH with H33N, A104H
VL: B1 VL
notes: IgG; gemtuzumab VH variant #35 (A104H)
B10: MYT0514 (antibody, V domains shown)
VH: B1 VH with H33N, W102H
VL: B1 VL
notes: IgG; gemtuzumab VH variant #33 (W102H)
B11: MYT0499 (antibody, V domains shown)
VH: B1 VH with H33N, G57H
VL: B1 VL
notes: IgG; gemtuzumab VH variant #18 (G57H)
B12: MYT0505 (antibody, V domains shown)
VH: B1 VH with H33N, K63H
VL: B1 VL
notes: IgG; gemtuzumab VH variant #24 (K63H)
B13: MYT0490 (antibody, V domains shown)
VH: B1 VH with H33N, I34H
VL: B1 VL
notes: IgG; gemtuzumab VH variant #9 (I34H)
B14: MYT0493 (antibody, V domains shown)
VH: B1 VH with H33N, I51H
VL: B1 VL
notes: IgG; gemtuzumab VH variant #12 (I51H)
B15: MYT0517 (antibody, V domains shown)
VH: B1 VH with H33N, Y105H
VL: B1 VL
notes: IgG; gemtuzumab VH variant #36 (Y105H)
B16: MYT0512 (antibody, V domains shown)
VH: B1 VH with H33N, N100H
VL: B1 VL
notes: IgG; gemtuzumab VH variant #31 (N100H)
B17: MYT0507 (antibody, V domains shown)
VH: B1 VH with H33N, K65H
VL: B1 VL
notes: IgG; gemtuzumab VH variant #26 (K65H)
B18: MYT0498 (antibody, V domains shown)
VH: B1 VH with H33N, G56H
VL: B1 VL
notes: IgG; gemtuzumab VH variant #17 (G56H)
B19: MYT0494 (antibody, V domains shown)
VH: B1 VH with H33N, Y52H
VL: B1 VL
notes: IgG; gemtuzumab VH variant #13 (Y52H)
B20: MYT0502 (antibody, V domains shown)
VH: B1 VH with H33N, Y60H
VL: B1 VL
notes: IgG; gemtuzumab VH variant #21 (Y60H)
B21: MYT0504 (antibody, V domains shown)
VH: B1 VH with H33N, Q62H
VL: B1 VL
notes: IgG; gemtuzumab VH variant #23 (Q62H)
B22: MYT0515 (antibody, V domains shown)
VH: B1 VH with H33N, L103H
VL: B1 VL
notes: IgG; gemtuzumab VH variant #34 (L103H)
B23: MYT0508 (antibody, V domains shown)
VH: B1 VH with H33N, N66H
VL: B1 VL
notes: IgG; gemtuzumab VH variant #27 (N66H)
B24: MYT0501 (antibody, V domains shown)
VH: B1 VH with H33N, D59H
VL: B1 VL
notes: IgG; gemtuzumab VH variant #20 (D59H)
B25: MYT1342 (antibody, V domains shown)
VH: QVQLVQSGAEVKKPGASVKVSCKASGYTFTNYHINWVRQAPGQGLEWIGWIYPGDGSTKYNEKFKAKATLTADTSTSTAYMELRSLRSDDTAVYYCASGYEDAMDYWGQGTTVTVSS
VL: DIQMTQSPSSLSASVGDRVTINCKASQDINSYLSWFQQKPGKAPKTLIYRANRLVDGVPSRFSGSGSGQDYTLTISSLQPEDFATYYCLQYDEFPLTFGGGTKVEIK
notes: IgG; vadastuximab VH variant #8 (D33H)
B26: MYT1364 (antibody, V domains shown)
VH: B25 VH with H33D, G99H
VL: B25 VL
notes: IgG; vadastuximab VH variant #30 (G99H)
B27: MYT2661 (antibody, V domains shown)
VH: B25 VH with H33D
VL: B25 VL with Y32H
notes: IgG; vadastuximab VL variant #9 (Y32H)
B28: MYT1362 (antibody, V domains shown)
VH: B25 VH with H33D, A97H
VL: B25 VL
notes: IgG; vadastuximab VH variant #28 (A97H)
B29: MYT1344 (antibody, V domains shown)
VH: B25 VH with H33D, N35H
VL: B25 VL
notes: IgG; vadastuximab VH variant #10 (N35H)
B30: MYT2633 (antibody, V domains shown)
VH: QVQLQQPGAEVVKPGASVKMSCKASGYTFTSYYIHWIKQTPGQGLEWVGVIYPGNDDISYNQKFQGKATLTADKSSTTAYMQLSSLTSEDSAVYYCAREVRLRYFDVWGQGTTVTVSS
VL: EIVLTQSPGSLAVSPGERVTMSCKSSQSVFFSSSQKNYLHWYQQIPGQSPRLLIYWASTRESGVPDRFTGSGSGTDFTLTISSVQPEDLAIYYCHQYLSSRTFGQGTKLEIK
notes: IgG; IMGN779 VL variant #17 (A40H)

biological target: T1, CD33 (Sino Biological, Cat #12238-H08H) (UniProt P20138 18-259); assay: BLI, IgG captured on anti-human Fc sensor, 50 nM CD33, pH 7.4 vs pH 5.0
From the text: Multiple CD33-binding monoclonal antibodies have been described in the literature and can be used as a template for engineering pH-dependent binding (Hamann P R et al (2002) “Gemtuzumab ozogamicin, a potent and selective anti-CD33 antibody-calicheamicin conjugate for treatment of acute myeloid leukemia.” Bioconjug Chem 13(1):47-58). Gemtuzumab (Heavy chain SEQ ID NO: 1, Light chain SEQ ID NO: 2) was selected as a CD33-binding monoclonal antibody for pH engineering via histidine scanning. Briefly, CDRs in the heavy chain were identified using the methods described by Kabat et al (Kabat et al. (1992) Sequences of Proteins of Immunological Interest, DIANE publishing) and IMGT (Lefranc M P (1999) “The IMGT unique numbering for Immunoglobulins, T cell receptors and Ig-like domains” The Immunologist 7, 132-136), and for each CDR, residues falling under either or both Kabat and IMGT CDR definitions were called as CDR residues. To generate pH-dependent sequence variants, individual amino acid residues within the heavy chain CDRs were systematically substituted with a histidine, one at a time (MYT0482-MYT0517). In cases where the starting CDR residue was a histidine, it was mutated to an alanine. Antibody variants with only one histidine or alanine mutation in a heavy chain CDR were generated by co-transfection of Expi293 cells with a) one heavy chain sequence variant, and b) the corresponding starting ABPC light chain using methods known to the art. After allowing for four days of protein expression, cell culture supernatants were collected, quantified by SDS-PAGE analysis, (FIG. 1), and the pH dependence of the variant was evaluated using biolayer interferometry (BLI) on an Octet RED 384 instrument. Briefly, cell culture supernatants were normalized to an antibody expression level of 25 μg/mL, and captured on an anti-human Fc sensor (Forte Bio). A baseline was established using 1×PBST (50 mM Potassium Phosphate Buffer+150 mM NaCl+0.05% Tween 20) pH 7.4, and the sensor was associated with 50 nM of CD33 (Sino Biological, Cat #12238) in 1×PBST pH 7.4 for 120 sec to generate an association curve. In the dissociation phase, the antibody-antigen complex on the sensor was exposed to 1×PBST pH 7.4 for 300-600 sec. Baseline, association, and dissociation were repeated using 1×MES (100 mM MES Buffer+150 mM NaCl+0.05% Tween 20) pH 5.0 throughout in a separate condition.

T1 sequence (P20138 18-259 limits assumed): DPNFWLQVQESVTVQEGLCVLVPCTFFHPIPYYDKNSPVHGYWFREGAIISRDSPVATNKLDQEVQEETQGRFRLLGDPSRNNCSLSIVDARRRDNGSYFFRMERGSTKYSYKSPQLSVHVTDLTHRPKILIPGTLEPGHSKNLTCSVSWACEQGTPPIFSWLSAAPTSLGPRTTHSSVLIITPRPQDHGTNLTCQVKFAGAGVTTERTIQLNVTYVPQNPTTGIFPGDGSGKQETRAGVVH

Row | Binder | binding result
1 | B1 | binds
2 | B2 | binds
3 | B3 | binds
4 | B4 | binds
5 | B5 | binds
6 | B6 | binds
7 | B7 | binds
8 | B8 | binds
9 | B9 | binds
10 | B10 | binds
11 | B11 | binds
12 | B12 | binds
13 | B13 | binds
14 | B14 | binds
15 | B15 | binds
16 | B16 | binds
17 | B17 | binds
18 | B18 | binds
19 | B19 | binds
20 | B20 | binds
21 | B21 | binds
22 | B22 | binds
23 | B23 | binds
24 | B24 | binds

biological target: T1, CD33 (Sino Biological, Cat #12238-H08H); assay: BLI, IgG captured on anti-human Fc sensor, pH 7.4 and pH 5.4

Row | Binder | binding result
25 | B25 | no binding (tested: 50 nM CD33)
26 | B26 | no binding (tested: 50 nM CD33)
27 | B27 | no binding (tested: 50 nM CD33)
28 | B28 | no binding (tested: 50 nM CD33)
29 | B29 | no binding (tested: 50 nM CD33)
30 | B30 | no binding (tested: 50 nM CD33)
